The text below walks through data of article PMC3740443, “A Novel Function for the Conserved Glutamate Residue in the Walker B Motif of Replication Factor C”.

Series [1] deals with AF488-labeled PCNA (UniProt P15873). The series can be described thus: other fluorescence titration; PCNA opening (unquenching) assay: fluorescence of 10 nM PCNA-AF488_2 at 517 nm, increasing RFC, 0.5 mM ATPγS in place of ATP; assay buffer; equilibrium, quadratic fit.
Series [2] addresses MDCC labeled PCNA (UniProt P15873). The experiment in a line: other fluorescence titration; fluorescence intensity of 10 nM PCNA-MDCC at 470 nm, increasing RFC, 0.5 mM ATP; assay buffer 30 mM HEPES-NaOH pH 7.5, 150 mM NaCl, 10 mM MgCl2, 0.5 mM EDTA, 2 mM DTT, 2% glycerol; equilibrium, quadratic fit.
Series [3] concerns the target AF488-labeled PCNA (UniProt P15873). The experiment in a line: other fluorescence titration; PCNA opening (unquenching) assay: fluorescence of 10 nM PCNA-AF488_2 at 517 nm, increasing RFC, 0.5 mM ATP; assay buffer; equilibrium, quadratic fit.
Series [4] has the same target.
Series [5] deals with MDCC labeled PCNA (UniProt P15873). The experiment in a line: other fluorescence titration; fluorescence intensity of 10 nM PCNA-MDCC at 470 nm, increasing RFC, 0.5 mM ATPγS in place of ATP; assay buffer; equilibrium, quadratic fit.
Series [6] deals with AF488-labeled PCNA (UniProt P15873). The source holds these as a separate data set.
The target in series [7] is PCNA (Saccharomyces cerevisiae) (UniProt P15873). The series can be described thus: surface plasmon resonance. The following applies: cited from earlier work. On the technique in general: SPR reads the build-up and loss of mass on a sensor chip optically.
Series [8] concerns the target RFC clamp loader (WT; Rfc1 N-terminal truncation);PCNA (Saccharomyces cerevisiae;Saccharomyces …, UniProt P38630;P40348;P38629;P40339;P38251;P15873 284-861;1-353;1-340;1-323;1-354;1-258, |). The experiment in a line: fluorescence anisotropy; 0.5 mM ATPgS; 2 uM PCNA; 20 nM p/t DNA-RhX, 0.5 mM ATPgS, varied RFC, with or without 2 uM PCNA; buffer, salt, pH and temperature not in the material (Section 3.1 text missing). To be noted: protein: recombinant;recombinant; tags: Rfc1 N-terminal 6xHis and kinase recognition motif replacing residues 1-283;; copies: 1;1;1;1;1;3; label: X-rhodamine (RhX) on 5' end of template; primer-template: 26 bp duplex with 34 nt 5' template overhang.

Series [9] has as its target RFC WB-EA (Walker B Glu to Ala quadruple mutant);PCNA (Saccharomyces cerevisiae;Saccharomyces …, UniProt P38630;P40348;P38629;P40339;P38251;P15873 284-861;1-353;1-340;1-323;1-354;1-258, E425A;E141A;E118A;E115A|). The description is as above. The following applies: protein: recombinant;recombinant; tags: Rfc1 N-terminal 6xHis and kinase recognition motif replacing residues 1-283;; copies: 1;1;1;1;1;3; label: X-rhodamine (RhX) on 5' end of template; primer-template: 26 bp duplex with 34 nt 5' template overhang.

Series [10] has as its target RFC WB-EQ (Walker B Glu to Gln quadruple mutant);PCNA (Saccharomyces cerevisiae;Saccharomyces …, UniProt P38630;P40348;P38629;P40339;P38251;P15873 284-861;1-353;1-340;1-323;1-354;1-258, E425Q;E141Q;E118Q;E115Q|). The description is as above. To be noted: protein: recombinant;recombinant; tags: Rfc1 N-terminal 6xHis and kinase recognition motif replacing residues 1-283;; copies: 1;1;1;1;1;3; label: X-rhodamine (RhX) on 5' end of template; primer-template: 26 bp duplex with 34 nt 5' template overhang.

Series [11] deals with RFC WB-EA (Walker B Glu to Ala quadruple mutant) (Saccharomyces cerevisiae, UniProt P38630;P40348;P38629;P40339;P38251 284-861;1-353;1-340;1-323;1-354, E425A;E141A;E118A;E115A). The series can be described thus: fluorescence anisotropy; 0.5 mM ATPgS; no PCNA; 20 nM p/t DNA-RhX, 0.5 mM ATPgS, varied RFC, with or without 2 uM PCNA; buffer, salt, pH and temperature not in the material (Section 3.1 text missing). To be noted: protein: recombinant; tags: Rfc1 N-terminal 6xHis and kinase recognition motif replacing residues 1-283; copies: 1;1;1;1;1; label: X-rhodamine (RhX) on 5' end of template; primer-template: 26 bp duplex with 34 nt 5' template overhang. A general note: In fluorescence polarisation assays a small probe gives low polarisation when free and higher when bound to something large.

For series [12], the target named is RFC clamp loader (WT; Rfc1 N-terminal truncation) (Saccharomyces cerevisiae, UniProt P38630;P40348;P38629;P40339;P38251 284-861;1-353;1-340;1-323;1-354). Described as above. To be noted: protein: recombinant; tags: Rfc1 N-terminal 6xHis and kinase recognition motif replacing residues 1-283; copies: 1;1;1;1;1; label: X-rhodamine (RhX) on 5' end of template; primer-template: 26 bp duplex with 34 nt 5' template overhang.

The target of series [13] is RFC WB-EQ (Walker B Glu to Gln quadruple mutant) (Saccharomyces cerevisiae, UniProt P38630;P40348;P38629;P40339;P38251 284-861;1-353;1-340;1-323;1-354, E425Q;E141Q;E118Q;E115Q). The series is described as above. The following applies: protein: recombinant; tags: Rfc1 N-terminal 6xHis and kinase recognition motif replacing residues 1-283; copies: 1;1;1;1;1; label: X-rhodamine (RhX) on 5' end of template; primer-template: 26 bp duplex with 34 nt 5' template overhang.

Chain of PCNA (Saccharomyces cerevisiae) (P15873 whole entry, the tested form may be a part): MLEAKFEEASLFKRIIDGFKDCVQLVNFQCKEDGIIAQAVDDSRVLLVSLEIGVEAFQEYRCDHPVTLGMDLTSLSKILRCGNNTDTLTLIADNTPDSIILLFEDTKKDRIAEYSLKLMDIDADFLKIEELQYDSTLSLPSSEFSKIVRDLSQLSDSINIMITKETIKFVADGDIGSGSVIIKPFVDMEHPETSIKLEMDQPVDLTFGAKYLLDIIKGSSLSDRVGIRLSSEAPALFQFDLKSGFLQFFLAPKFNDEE

As usually defined, the Kd is a measure of binding affinity in units of concentration. Regarding “wild-type replication factor C (RFC) complex, Rfc1 lacking its first 283 residues (from UniProt P38630 284-861; P40348 1-353; P38629 1-340; P40339 1-323; P38251 1-354)”, the Kd stood at 5.8 nM in series [1], 7.1 nM in series [2], 11 nM in series [3] and 13 nM in [5]. In addition, in series [4], the PCNA opening: increase of AF488 fluorescence of 10 nM PCNA-AF488 2 at saturating RFC, 0.5 mM ATP came to 2 fold. Further, the PCNA opening: increase of AF488 fluorescence of 10 nM PCNA-AF488 2 at saturating RFC, 0.5 mM ATPγS in series [6] stood at 1.5 fold.
“Replication factor C (from UniProt P38630)”: the Kd in [7] is 1.3 nM.

B1: p/t DNA-RhX (26/60-mer primed template) (dsDNA)
DNA 1: TTCAGGTCAGAAGGGTTCTATCTCTGTTGGCCAGAATGTCCCTTTTATTACTGGTCGTGT
DNA 2: ACACGACCAGTAATAAAAGGGACATT
modifications: 5' C6 amino linker on the 60-mer template
In the case of B1, the Kd was determined as 37 ± 13 nM in [8]; 1800 ± 700 nM in [9]; 460 ± 200 nM in series [10]; 1060 ± 200 nM in series [11]; 91 ± 28 nM in [12]; 690 ± 400 nM in series [13].
